From PMC5580921, “Homeodomain-like DNA binding proteins control the haploid-to-diploid transition in Dictyostelium”
Where a chain is given by its changes, count along the chain named.

Assays:
MatA K72A/K76A = target: T1, MatA K72A/K76A (Dictyostelium discoideum, UniProt D3UFF3 1-107, K72A;K76A); test: EMSA; EMSA: 10 mM Tris-HCl pH 7.4, 1 mM EDTA, 20 mM NaCl, 30 min room temperature, 6% polyacrylamide gel in 1x tris-borate. NMR: 25 mM phosphate pH 6, 50 mM NaCl, 50; details: protein: recombinant; tags: His6-lipoyl domain tag removed by TEV; label: none (SYBR Gold stain); blunt
T1 sequence: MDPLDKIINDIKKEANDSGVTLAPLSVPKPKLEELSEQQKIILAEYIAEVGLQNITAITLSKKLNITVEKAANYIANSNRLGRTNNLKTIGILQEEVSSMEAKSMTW

MatB S71A [1] = target: T2, MatB S71A (Dictyostelium discoideum, UniProt D3UFE5 1-107, S71A); test: EMSA; similar to wild type; EMSA: 10 mM Tris-HCl pH 7.4, 1 mM EDTA, 20 mM NaCl, 30 min room temperature, 6% polyacrylamide gel in 1x tris-borate. NMR: 25 mM phosphate pH 6, 50 mM NaCl, 50; details: protein: recombinant; tags: His6-lipoyl domain tag removed by TEV (15N-labeled for NMR); label: none (SYBR Gold stain); blunt
T2 sequence: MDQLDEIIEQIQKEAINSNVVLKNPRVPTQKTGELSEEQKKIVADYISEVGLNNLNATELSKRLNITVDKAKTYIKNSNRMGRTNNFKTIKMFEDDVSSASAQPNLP

MatA [2] = target: T3, MatA (Dictyostelium discoideum, UniProt Q54HW9 1-107); test: EMSA; smear; nonspecific, low affinity; EMSA: 10 mM Tris-HCl pH 7.4, 1 mM EDTA, 20 mM NaCl, 30 min room temperature, 6% polyacrylamide gel in 1x tris-borate. NMR: 25 mM phosphate pH 6, 50 mM NaCl, 50; details: protein: recombinant; tags: His6-lipoyl domain tag removed by TEV (15N-labeled for NMR); label: none (SYBR Gold stain); blunt
T3 sequence: T1 sequence with A72K, A76K

MatB = target: T4, MatB (Dictyostelium discoideum, UniProt D3UFE5 1-107); test: EMSA; nonspecific; EMSA: 10 mM Tris-HCl pH 7.4, 1 mM EDTA, 20 mM NaCl, 30 min room temperature, 6% polyacrylamide gel in 1x tris-borate. NMR: 25 mM phosphate pH 6, 50 mM NaCl, 50; details: protein: recombinant; tags: His6-lipoyl domain tag removed by TEV; label: none (SYBR Gold stain); blunt
T4 sequence: T2 sequence with A71S

MatA [3] = target: T3, MatA; test: NMR; 80 uM DNA, 20 uM MatA; CSPs at L32, L35, E69, I75, K76, N77; EMSA: 10 mM Tris-HCl pH 7.4, 1 mM EDTA, 20 mM NaCl, 30 min room temperature, 6% polyacrylamide gel in 1x tris-borate. NMR: 25 mM phosphate pH 6, 50 mM NaCl, 50; details: protein: recombinant; tags: His6-lipoyl domain tag removed by TEV (15N-labeled for NMR); label: none; blunt
MatB S71A [4] = target: T2, MatB S71A; test: NMR; 80 uM DNA, 20 uM protein, 1 C; core signals lost by intermediate exchange broadening; EMSA: 10 mM Tris-HCl pH 7.4, 1 mM EDTA, 20 mM NaCl, 30 min room temperature, 6% polyacrylamide gel in 1x tris-borate. NMR: 25 mM phosphate pH 6, 50 mM NaCl, 50; details: protein: recombinant; tags: His6-lipoyl domain tag removed by TEV (15N-labeled for NMR); label: none; blunt
MatA [5] = target: T3, MatA; test: NMR; 58-bp titration 40-120 uM DNA, 20 uM MatA; fast exchange, very weak, unsaturated; EMSA: 10 mM Tris-HCl pH 7.4, 1 mM EDTA, 20 mM NaCl, 30 min room temperature, 6% polyacrylamide gel in 1x tris-borate. NMR: 25 mM phosphate pH 6, 50 mM NaCl, 50; details: protein: recombinant; tags: His6-lipoyl domain tag removed by TEV (15N-labeled for NMR); label: none; blunt

B1: EMSA dsDNA with MATalpha2 operator (dsDNA)
DNA 1: CCGAAACGTTTGGTGGCGCATGTAATTCATTTACACGCGCGAGGGCGTGCAAGATTC
DNA 2: GAATCTTGCACGCCCTCGCGCGTGTAAATGAATTACATGCGCCACCAAACGTTTCGG
binding result (MatA K72A/K76A): no binding | binding result (MatB S71A [1]): binds | binding result (MatA [2]): binds | binding result (MatB): binds

B2: 29-bp DNA (dsDNA)
DNA 1: CCGAAACGTTTGGTGGCGGGACCAGTGAC
DNA 2: GTCACTGGTCCCGCCACCAAACGTTTCGG
binding result (MatA [3]): binds | binding result (MatB S71A [4]): binds

B3: 58-bp DNA (dsDNA)
DNA 1: GAATCTTGCACGCCCTCGCTCAAGCCTTCGTCACTGGTCCCGCCACCAAACGTTTCGG
DNA 2: CCGAAACGTTTGGTGGCGGGACCAGTGACGAAGGCTTGAGCGAGGGCGTGCAAGATTC
binding result (MatA [5]): binds
